{"source": "patent US20260218128A1", "key": {"NKG2D ligands [1]": {"molecular_target": "NKG2D ligands", "experiment": "flow cytometry, human primary NK cells after 24 h 1:1 co-culture with HL60 cells, NKG2D-Fc protein 5 µg/mL, anti-human IgG Fc-PE; histogram peak near 10^2; control NK only+PBS: 12.0"}, "NKG2D ligands [2]": {"molecular_target": "NKG2D ligands", "experiment": "flow cytometry, human primary NK cells after 24 h 1:1 co-culture with KG-1 cells, NKG2D-Fc protein 5 µg/mL, anti-human IgG Fc-PE; histogram peak near 10^2; control NK only+PBS: 12.0"}, "NKG2D ligands [3]": {"molecular_target": "NKG2D ligands", "experiment": "flow cytometry, human primary NK cells after 24 h 1:1 co-culture with THP-1 cells, NKG2D-Fc protein 5 µg/mL, anti-human IgG Fc-PE; histogram peak near 10^2; control NK only+PBS: 12.0"}, "NKG2D ligands [4]": {"molecular_target": "NKG2D ligands", "experiment": "flow cytometry, human primary NK cells after 24 h 1:1 co-culture with MV4-11 cells, NKG2D-Fc protein 5 µg/mL, anti-human IgG Fc-PE; faint histogram near 10^2; control NK only+PBS: 12.0"}, "NKG2D ligands [5]": {"molecular_target": "NKG2D ligands", "experiment": "flow cytometry, human primary NK cells after 24 h 1:1 co-culture with NKG2D-UCAR-T cells, NKG2D-Fc protein 5 µg/mL, anti-human IgG Fc-PE; histogram peak near 10^2; control NK only+PBS: 12.0"}}, "data": [{"substance": "NKG2D-Fc protein (from UniProt P26718) (Fc fusion)", "values": [{"measurement": "PE fluorescence statistic, name not given", "setting": "NKG2D ligands [1]", "result": 107}, {"measurement": "PE fluorescence statistic, name not given", "setting": "NKG2D ligands [2]", "result": 99.7}, {"measurement": "PE fluorescence statistic, name not given", "setting": "NKG2D ligands [3]", "result": 125}, {"measurement": "PE fluorescence statistic, name not given", "setting": "NKG2D ligands [4]", "result": 124}, {"measurement": "PE fluorescence statistic, name not given", "setting": "NKG2D ligands [5]", "result": 95}]}]}
